# Patent US20160304586A1
# B1: CR11039 (antibody, V domains shown)
# VH: EVQLVQSGAEVKKPGESVKISCKTSGYAFTGYGISWVRQAPGQGLEWMGWINTYKFNTNYAQNLQGRVTMTIDTSTSAAYMELRSLRYEDTAVYFCARDWAGPFGNAFDVWGQGTMVTVSS
# VL: IQMTQSPSSLSASIGDRVAITCQASQDISDYLNWYQQQPGKAPKLLLYGASNLETGVPSRFSGSGSGTDFTFTISSLQPEDIATYYCQQYGNLPPTFGGGTKLEIK
# Biological target: hemagglutinin of influenza B virus (B/Brisbane/60/2008 BX-35) (Influenza B virus B/Brisbane/60/2008 BX-35)
# Assay: cell-based or functional assay
binder,measurement,value
B1,"neutralizing capacity in MDCK cell culture, Experiment 5, CPE, undiluted virus",> 0.4 µg/mL
same,"neutralizing capacity in MDCK cell culture, Experiment 6, CPE, undiluted virus",> 0.8 µg/mL
